Measured values taken from paper PMC12065904, “Mapping the interaction surface between CaVβ and actin and its role in calcium channel clearance” (Nature Communications, 2025).

Biological target: rabbit skeletal muscle actin, polymerized in vitro (F-actin) (rabbit, UniProt P68135 1-377)
Test: co-sedimentation; F-actin cosedimentation: CaVβ proteins incubated with polymerized actin in polymerization buffer (0.2 mM CaCl2, 50 mM KCl, 2 mM MgCl2, 1 mM ATP, 5 mM HEPES pH 8.0), 25 µM phalloidin; 150,000 × g, 20 min, 4 °C; densitometry of pellet over total; also at 30–150 mM NaCl and after 30 or 90 min of incubation
Details: both partners purified

B1: CaVβ2-core WT (core region of rat CaVβ2, residues 23–422) (domain or fragment)
chain: not shown
notes: rat CaVβ2 (voltage-gated calcium channel β2 subunit), UniProtKB Q8VGC3-2, core region (SH3 and GK domains), residues 23–422; Expressed from pRSETB
For B1, the bound fraction was 0.24 ± 0.03 fraction.
